In US7390625B2, “Apoptosis-associated protein and use thereof” (Takeda Pharmaceutical Company Limited, priority 2002, dated 2008):

T1: ASK1 (Homo sapiens, UniProt Q99683)
T1 construct: Myc; expressed in transfected cells; host or cells: HEK293
T1 sequence (Q99683 1-1374): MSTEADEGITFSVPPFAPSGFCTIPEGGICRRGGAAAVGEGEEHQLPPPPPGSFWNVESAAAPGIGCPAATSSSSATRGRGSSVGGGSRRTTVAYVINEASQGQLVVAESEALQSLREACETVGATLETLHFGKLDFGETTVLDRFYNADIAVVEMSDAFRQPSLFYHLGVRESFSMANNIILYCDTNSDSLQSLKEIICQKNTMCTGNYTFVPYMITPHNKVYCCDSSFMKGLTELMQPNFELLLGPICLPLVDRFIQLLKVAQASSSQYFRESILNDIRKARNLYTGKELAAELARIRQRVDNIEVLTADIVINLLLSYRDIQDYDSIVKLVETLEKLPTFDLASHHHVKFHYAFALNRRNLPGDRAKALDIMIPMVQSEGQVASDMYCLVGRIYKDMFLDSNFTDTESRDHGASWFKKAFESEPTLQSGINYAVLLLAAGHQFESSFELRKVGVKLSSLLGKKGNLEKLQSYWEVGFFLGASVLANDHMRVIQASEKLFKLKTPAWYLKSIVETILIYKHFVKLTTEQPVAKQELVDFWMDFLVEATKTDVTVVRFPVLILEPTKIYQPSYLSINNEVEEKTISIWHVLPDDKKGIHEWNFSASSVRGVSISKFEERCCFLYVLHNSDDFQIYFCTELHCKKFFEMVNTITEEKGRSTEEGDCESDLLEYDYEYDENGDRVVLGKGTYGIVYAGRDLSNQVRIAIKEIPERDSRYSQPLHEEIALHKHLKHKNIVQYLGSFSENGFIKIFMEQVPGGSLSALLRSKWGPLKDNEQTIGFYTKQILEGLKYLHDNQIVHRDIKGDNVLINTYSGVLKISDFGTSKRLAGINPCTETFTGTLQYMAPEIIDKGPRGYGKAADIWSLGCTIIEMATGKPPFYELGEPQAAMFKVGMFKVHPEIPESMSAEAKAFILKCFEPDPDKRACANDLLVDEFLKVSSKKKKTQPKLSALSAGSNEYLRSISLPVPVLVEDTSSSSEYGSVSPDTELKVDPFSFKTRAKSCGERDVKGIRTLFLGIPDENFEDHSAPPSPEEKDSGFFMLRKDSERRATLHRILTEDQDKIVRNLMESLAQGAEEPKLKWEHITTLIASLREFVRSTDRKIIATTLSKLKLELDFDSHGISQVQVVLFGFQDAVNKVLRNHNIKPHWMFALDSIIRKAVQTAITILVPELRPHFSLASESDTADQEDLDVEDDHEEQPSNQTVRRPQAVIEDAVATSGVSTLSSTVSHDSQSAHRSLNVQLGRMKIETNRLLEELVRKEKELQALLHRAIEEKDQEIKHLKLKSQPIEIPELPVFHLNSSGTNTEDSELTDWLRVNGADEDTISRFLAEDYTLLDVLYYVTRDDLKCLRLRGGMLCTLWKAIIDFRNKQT

B1: CFP-ABP1: fusion protein of ABP1 with CFP at the N-terminal (protein)
chain: MRPLDIVELAEPEEVEVLEPEEDFEQFLLPVINEMREDIASLTREHGRAYLRNRSKLWEMDNMLIQIKTQVEASEESALNHLQNPGDAAEGRAAKRCEKAEEKAKEIAKMAEMLVELVRRIEKSESS
modifications: left off: large carriers
notes: fusion protein of ABP1 with CFP at the N-terminal
B2: ABP1: ASK1-binding protein of 127 amino acids encoded by gene PGR1 (SEQ ID NO:2); Myc-tagged in PAE-ABP1 cells (protein, listed as Homo sapiens)
chain: B1 chain
modifications: Myc tag
notes: Myc-tagged in PAE-ABP1 cells

Experiments:
[1] = test system: HeLa cells; assay: Cell death assay in HeLa cells transiently expressing CFP fusion proteins; type: cell-based
Protocol: FIGS. 6A-B show the induction of cell death by ABP1 in HeLa cells. FIG. 6A: Fluorescence photomicrographs at 36 hours after HeLa cells were transfected with CFP or the CFP-ABP1 plasmid (upper panel) and differential interference photomicrographs for the same fields (lower panel) are shown. FIG. 6B: The ratio (%) of cell death at 36 hours after transfection is shown.
FIGS. 10A-B show the induction of cell death by an ABP1-deficient variant. FIG. 10A: A schematic diagram of the ABP1-deficient variant is shown. […] FIG. 10B: The ratio (%) of cell death at 36 hours after transfection in cells introduced with the ABP1-deficient variant is shown.
• (1) To examine the intracellular localization and function of ABP1, HeLa cells were transfected with the CFP-ABP1 plasmid [prepared by subcloning ABP1 cDNA prepared by PCR into pECFP-C1 (Clontech)], which was also used in the immunoprecipitation experiment, and which expresses a fusion protein of ABP1 with CFP at the N-terminal-[transfection conducted using FuGENE6 (Roche Diagnostics K.K) as directed in the instruction manual thereof] to allow the transient expression of the protein, and CFP fluorescence was examined over time using a fluorescence microscope. […] This calculation was made for CFP-positive cells.
As described above, ABP1 has none of the functional domains of existing apoptosis-related factors. […]

[2] = biological target: T1, ASK1; assay: Co-immunoprecipitation of ABP1 and ASK1 co-expressed in HEK293 cells; type: binding
Protocol: FIGS. 4A-B show the results of binding experiments of ABP1 and ASK1. FIG. 4A: HEK293 cells were transfected with Flag-ABP1 and the Myc-ASK1 plasmid, the cells were recovered after 24 hours, immunoprecipitation with an anti-Flag antibody was conducted, and immunoblot analysis was conducted using an anti-Myc antibody. FIG. 4B: HEK293 cells were transfected with Flag-ASK1 and the CFP-ABP1 plasmid, the cells were recovered after 24 hours, immunoprecipitation with an anti-Flag antibody was conducted, and immunoblot analysis was conducted using an anti-GFP antibody. Note that CFP is a variant of GFP and can be recognized by an anti-GFP antibody. For both FIGS. 4A and B, the two right lanes show the results obtained with H2O2 treatment (0.5 mM, 1 hour). […] IP stands for immunoprecipitation, and IB stands for immunoblot.
Two fusion proteins, i.e., Flag-ABP1 and Myc-ASK1, were co-expressed in HEK293 cells. […] The antibodies used were anti-Flag antibody (described above) and anti-Myc antibody (Clone 9E10, Calbiochem). This binding was enhanced by treatment with H2O2, which is ASK1 activation factor. […] The antibodies used were anti-Flag antibody (described above) and anti-GFP antibody (Medical & Biological Laboratories CO.).

[3] = test system: JNK; assay: Immunoblot with anti-phosphorylated JNK antibody in PAE-ABP1 cells; type: cell-based, porcine; details: 12 hours after tetracycline removal
Excerpt: (§1) FIGS. 11A-B show the activation of ASK1, JNK, and p38 by ABP1. FIG. 11A: PAE-ABP1 cells were cultivated in the absence of tetracycline, the activation of endogenous JNK and p38 was examined by immunoblot analysis using each anti-phosphorylated protein antibody. FIG. 11B: PAE-ABP1 cells were cultivated in the absence of tetracycline, the activation of endogenous ASK1 was examined by immunoblot analysis using an anti-phosphorylated protein antibody. IB stands for immunoblot.
(§2) The activation of JNK and p38 during induction of the expression of ABP1 was investigated using respective anti-phosphorylated protein antibodies using PAE-ABP1 cells. The antibodies used were an anti-phosphorylated JNK antibody (Cell Signaling), an anti-phosphorylated p38 antibody (Cell Signaling), and an anti-phosphorylated ASK1 antibody (Tobiume et al., EMBO Rep., 2, 222-228, 2001). The cells were lysed using a lysis buffer (described above) in the same manner as Example 4, the lysate was centrifuged, the supernatant was recovered and reacted with an anti-Myc antibody (Clone 9E10, Calbiochem), Protein A-sepharose 4B (Zymed Laboratories) was added, incubation was conducted for 30 minutes, the reaction mixture was washed with the lysis buffer three times, an SDS sample buffer (described above) was added, and the same procedure as the immunoblotting method was followed.

[4] = test system: ASK1; assay: Immunoblot with anti-phosphorylated ASK1 antibody in PAE-ABP1 cells; type: cell-based, porcine; details: 12 hours after tetracycline removal
Excerpt: as §1, §2

[5] = test system: p38; assay: Immunoblot with anti-phosphorylated p38 antibody in PAE-ABP1 cells; type: cell-based, porcine; details: 12 hours after tetracycline removal
Excerpt: as §1, §2

[6] = test system: caspase-3; assay: Caspase-3 activity (DEVD-AFC fluorometric assay) in PAE-ABP1 cells; type: cell-based, porcine; details: absence of tetracycline, around the time of cell death
Protocol: (§3) FIGS. 9A-B show the caspase dependency of cell death by ABP1. FIG. 9A: PAE-ABP1 cells were cultivated in the absence of tetracycline, and caspase-3 activity was measured after 0, 12, 24, and 36 hours. The results are shown as relative values with the value in the presence of tetracycline taken as 1. FIG. 9B: PAE-ABP1 cells were treated with zVAD-fmk (50 μM) simultaneously with removal of tetracycline, and the ratio (%) of dead cells was quantified. Cell death assay was conducted at 18 hours after removal of tetracycline. Tet stands for tetracycline.
The same was also confirmed in TUNEL staining of PAE-ABP1 cells. • (4) DNA fragmentation during apoptosis normally occurs subsequent to caspase activation. […] The measurement was conducted using a CPP32/caspase-3 fluorometric protease assay kit (MBL) with the synthetic fluorescence peptide DEVD-7-amino-4-trifluoromethyl coumarin (AFC) as a substrate. The fluorescence intensity from the liberated AFC was measured at an excitation wavelength of 360 nm and a fluorescence wavelength of 530 nm using a fluorescence spectrophotometer. Each sample was assayed twice. The results are shown as relative values with the value in the presence of tetracycline taken as 1.

[7] = test system: PAE-ABP1 cells; assay: Cell death assay in PAE-ABP1 cells after removal of tetracycline; type: cell-based, porcine; details: 48 hours after removal of tetracycline (Myc-ABP1 expressed)
Protocol: FIGS. 7A-B show the induction of cell death by ABP1 in PAE-ABP1 cells. FIG. 7A: Phase contrast photomicrographs at 36 hours after cultivation of PAE-ABP1 cells in the presence (+) and absence (−) of tetracycline (Tet) are shown. FIG. 7B: The ratio (%) of cell death from cultivation in the presence of tetracycline (O hour) and at 24 hours and 48 hours after removal of tetracycline.
as §3, with “Tet stands for tetracycline.” left out
When these cells were cultured in the absence of tetracycline, cell death was induced with the expression of the ABP1 protein, as in the transient expression of the ABP1 protein in HeLa cells (FIG. 7A). The ratio of dead cells to all cells (the ratio of cells showing a morphological sign of cell death to all cells was determined under a microscope; the results were shown as the mean for three visual fields) was determined to be about 55% at 48 hours after removal of tetracycline (FIG. 7B).

[8] = test system: PAE-ABP1 cells; assay: DNA fragmentation (agarose gel electrophoresis) in PAE-ABP1 cells; type: cell-based, porcine; details: after removal of tetracycline
Protocol: PAE-ABP1 cells were examined for DNA fragmentation at each time after removal of tetracycline by agarose gel electrophoresis (upper panel). At both ends are molecular weight markers (M), with their sizes shown at the right end.
PAE-ABPl cells (2×10^6 cells) were lysed in 200 μl of lysis buffer [20 mM Tris-HCl (pH 7.5), 10 mM EDTA, 0.5% Triton X-100]. the lysate was centrifuged, and the supematant was recovered and treated with 0.2 mg/mi proteinase K at 420° C for 1 hour. Subsequently, DNA was purified by the phenol-chloroform extraction method and the ethanol precipitation method, this was lysed again in a TE buffer containing 0.2 mg/ml ribonuclease A (10mM Tris-HCl, 1mM EDTA), the lysate was electrophoresed on 2% agarose gel, stained with ethidium bromide, and the migration pattern was photographed.

| effect of H2O2 treatment on binding of ABP1 and ASK1 ([2]; H2O2 treatment (0.5 mM, 1 hour)) | Molecule | ratio of cell death among cells expressing the fusion protein ([1]; 36 hours after transfection) | time after transfection at which signs of cell death began ([1]; detachment from the culture plate, membrane blebbing) | binding of ABP1 and ASK1 (co-immunoprecipitation) ([2]; immunoprecipitation with anti-Flag antibody, immunoblot) | activation of endogenous JNK [3] | activation of endogenous ASK1 [4] | activation of endogenous p38 [5] | caspase-3 activity [6] | ratio of dead cells to all cells [7] | DNA fragmentation [8] |
| --- | --- | --- | --- | --- | --- | --- | --- | --- | --- | --- |
| also enhanced | B1 | about 70% | around 24 hours | binding of the two proteins was confirmed | – | – | – | – | – | – |
| – | B2 | – | – | – | observed | activation of ASK1 was observed | observed | decreased | about 55% | formed a DNA ladder |
